{
  "source": "patent US20220040297A1",
  "about": "(Chugai, published 2022)",
  "data": [
    {"target": "CD3ε homodimer protein (human, UniProt P07766 23-126, limits assumed)", "sequence (P07766 23-126 limits assumed)": "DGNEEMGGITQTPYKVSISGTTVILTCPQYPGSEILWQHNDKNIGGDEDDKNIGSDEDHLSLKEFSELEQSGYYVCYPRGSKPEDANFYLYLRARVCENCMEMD", "experiment": "SPR, immobilized CD3ε homodimer;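 note: biacore T200 surface plasmon resonance at 25 °C, antibody variants flowed as analytes over amine-coupled CD3ε homodimer on a CM4 chip, variant binding amount divided by that of GLS3000 antibody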", "values": [
      {"binder": "GLS3000 Y96H (antibody, name in Kabat numbering, V domains shown, one-arm format as m2) VH: QVQLVESGGGVVQPGRSLRLSCAASGFTFSNAWMHWVRQAPGKGLEWVAQIKAKSNNYATYYAESVKGRFTISRDDSKNSLYLQMNSLKTEDTAVYYCRYVHYGAYYGVDAWGQGTTVTVSS VL: DIVMTQSPLSLPVTPGEPASISCRSSQSLVHSNRNTYLHWYQQKPGQAPRLLIYKVSNRFSGVPDRFSGSGSGTDFTLKISRVEAEDVGVYYCGQGTQVPHTFGQGTKLEIK", "ratio of amounts bound (vs GLS3000)": 0.23},
      {"binder": "GLS3000 Y96E (antibody, name in Kabat numbering, V domains shown, one-arm format as m2) VH: QVQLVESGGGVVQPGRSLRLSCAASGFTFSNAWMHWVRQAPGKGLEWVAQIKAKSNNYATYYAESVKGRFTISRDDSKNSLYLQMNSLKTEDTAVYYCRYVHYGAYYGVDAWGQGTTVTVSS VL: DIVMTQSPLSLPVTPGEPASISCRSSQSLVHSNRNTYLHWYQQKPGQAPRLLIYKVSNRFSGVPDRFSGSGSGTDFTLKISRVEAEDVGVYYCGQGTQVPETFGQGTKLEIK", "ratio of amounts bound (vs GLS3000)": 0.17},
      {"binder": "GLS3000 Y32P (antibody, name in Kabat numbering, V domains shown, one-arm format as m2) VH: QVQLVESGGGVVQPGRSLRLSCAASGFTFSNAWMHWVRQAPGKGLEWVAQIKAKSNNYATYYAESVKGRFTISRDDSKNSLYLQMNSLKTEDTAVYYCRYVHYGAYYGVDAWGQGTTVTVSS VL: DIVMTQSPLSLPVTPGEPASISCRSSQSLVHSNRNTPLHWYQQKPGQAPRLLIYKVSNRFSGVPDRFSGSGSGTDFTLKISRVEAEDVGVYYCGQGTQVPYTFGQGTKLEIK", "ratio of amounts bound (vs GLS3000)": 0.24},
      {"binder": "GLS3000 Y96L (antibody, name in Kabat numbering, V domains shown, one-arm format as m2) VH: QVQLVESGGGVVQPGRSLRLSCAASGFTFSNAWMHWVRQAPGKGLEWVAQIKAKSNNYATYYAESVKGRFTISRDDSKNSLYLQMNSLKTEDTAVYYCRYVHYGAYYGVDAWGQGTTVTVSS VL: DIVMTQSPLSLPVTPGEPASISCRSSQSLVHSNRNTYLHWYQQKPGQAPRLLIYKVSNRFSGVPDRFSGSGSGTDFTLKISRVEAEDVGVYYCGQGTQVPLTFGQGTKLEIK", "ratio of amounts bound (vs GLS3000)": 0.32},
      {"binder": "GLS3000 Y96D (antibody, name in Kabat numbering, V domains shown, one-arm format as m2) VH: QVQLVESGGGVVQPGRSLRLSCAASGFTFSNAWMHWVRQAPGKGLEWVAQIKAKSNNYATYYAESVKGRFTISRDDSKNSLYLQMNSLKTEDTAVYYCRYVHYGAYYGVDAWGQGTTVTVSS VL: DIVMTQSPLSLPVTPGEPASISCRSSQSLVHSNRNTYLHWYQQKPGQAPRLLIYKVSNRFSGVPDRFSGSGSGTDFTLKISRVEAEDVGVYYCGQGTQVPDTFGQGTKLEIK", "ratio of amounts bound (vs GLS3000)": 0.17},
      {"binder": "GLS3000 Y96F (antibody, name in Kabat numbering, V domains shown, one-arm format as m2) VH: QVQLVESGGGVVQPGRSLRLSCAASGFTFSNAWMHWVRQAPGKGLEWVAQIKAKSNNYATYYAESVKGRFTISRDDSKNSLYLQMNSLKTEDTAVYYCRYVHYGAYYGVDAWGQGTTVTVSS VL: DIVMTQSPLSLPVTPGEPASISCRSSQSLVHSNRNTYLHWYQQKPGQAPRLLIYKVSNRFSGVPDRFSGSGSGTDFTLKISRVEAEDVGVYYCGQGTQVPFTFGQGTKLEIK", "ratio of amounts bound (vs GLS3000)": 1.17}
    ]},
    {"target": "T1, CD3ε homodimer protein (human, UniProt P07766 23-126, limits assumed, sulfo-tag or biotin label in some ECL assays)", "T1 construct": "also called human CD3ε homodimer protein; CD3 (CD3ε)", "T1 sequence (P07766 23-126 limits assumed)": "as the sequence (P07766 23-126 limits assumed) above", "experiment": "SPR, CD3ε homodimer on chip;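 note: biacore SPR with antibody variants flowed as analyte over amine-coupled CD3ε homodimer on a CM chip, bound amount of each single-residue H chain variant over that of parent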", "values": [
      {"binder": "CE115HA000 H35A (antibody, name in Kabat numbering, V domains shown) VH: QVQLVESGGGVVQPGRSLRLSCAASGFTFSNAWMAWVRQAPGKGLEWVAQIKAKSNNYATYYAESVKGRFTISRDDSKNSLYLQMNSLKTEDTAVYYCRYVHYGAYYGVDAWGQGTTVTVSS VL: DIVMTQSPLSLPVTPGEPASISCRSSQSLVHSNRNTYLHWYQQKPGQAPRLLIYKVSNRFSGVPDRFSGSGSGTDFTLKISRVEAEDVGVYYCGQGTQVPYTFGQGTKLEIK", "ratio of amounts bound vs CE115HA000": 0.17},
      {"binder": "CE115HA000 A52aD (antibody, name in Kabat numbering, V domains shown) VH: QVQLVESGGGVVQPGRSLRLSCAASGFTFSNAWMHWVRQAPGKGLEWVAQIKDKSNNYATYYAESVKGRFTISRDDSKNSLYLQMNSLKTEDTAVYYCRYVHYGAYYGVDAWGQGTTVTVSS VL: DIVMTQSPLSLPVTPGEPASISCRSSQSLVHSNRNTYLHWYQQKPGQAPRLLIYKVSNRFSGVPDRFSGSGSGTDFTLKISRVEAEDVGVYYCGQGTQVPYTFGQGTKLEIK", "ratio of amounts bound vs CE115HA000": 1.34},
      {"binder": "CE115HA000 A56Y (antibody, name in Kabat numbering, V domains shown) VH: QVQLVESGGGVVQPGRSLRLSCAASGFTFSNAWMHWVRQAPGKGLEWVAQIKAKSNNYYTYYAESVKGRFTISRDDSKNSLYLQMNSLKTEDTAVYYCRYVHYGAYYGVDAWGQGTTVTVSS VL: DIVMTQSPLSLPVTPGEPASISCRSSQSLVHSNRNTYLHWYQQKPGQAPRLLIYKVSNRFSGVPDRFSGSGSGTDFTLKISRVEAEDVGVYYCGQGTQVPYTFGQGTKLEIK", "ratio of amounts bound vs CE115HA000": 0.66},
      {"binder": "CE115HA000 A56Q (antibody, name in Kabat numbering, V domains shown) VH: QVQLVESGGGVVQPGRSLRLSCAASGFTFSNAWMHWVRQAPGKGLEWVAQIKAKSNNYQTYYAESVKGRFTISRDDSKNSLYLQMNSLKTEDTAVYYCRYVHYGAYYGVDAWGQGTTVTVSS VL: DIVMTQSPLSLPVTPGEPASISCRSSQSLVHSNRNTYLHWYQQKPGQAPRLLIYKVSNRFSGVPDRFSGSGSGTDFTLKISRVEAEDVGVYYCGQGTQVPYTFGQGTKLEIK", "ratio of amounts bound vs CE115HA000": 0.76},
      {"binder": "CE115HA000 A52aV (antibody, name in Kabat numbering, V domains shown) VH: QVQLVESGGGVVQPGRSLRLSCAASGFTFSNAWMHWVRQAPGKGLEWVAQIKVKSNNYATYYAESVKGRFTISRDDSKNSLYLQMNSLKTEDTAVYYCRYVHYGAYYGVDAWGQGTTVTVSS VL: DIVMTQSPLSLPVTPGEPASISCRSSQSLVHSNRNTYLHWYQQKPGQAPRLLIYKVSNRFSGVPDRFSGSGSGTDFTLKISRVEAEDVGVYYCGQGTQVPYTFGQGTKLEIK", "ratio of amounts bound vs CE115HA000": 0.52},
      {"binder": "CE115HA000 A56N (antibody, name in Kabat numbering, V domains shown) VH: QVQLVESGGGVVQPGRSLRLSCAASGFTFSNAWMHWVRQAPGKGLEWVAQIKAKSNNYNTYYAESVKGRFTISRDDSKNSLYLQMNSLKTEDTAVYYCRYVHYGAYYGVDAWGQGTTVTVSS VL: DIVMTQSPLSLPVTPGEPASISCRSSQSLVHSNRNTYLHWYQQKPGQAPRLLIYKVSNRFSGVPDRFSGSGSGTDFTLKISRVEAEDVGVYYCGQGTQVPYTFGQGTKLEIK", "ratio of amounts bound vs CE115HA000": 0.87},
      {"binder": "CE115HA000 A52aG (antibody, name in Kabat numbering, V domains shown) VH: QVQLVESGGGVVQPGRSLRLSCAASGFTFSNAWMHWVRQAPGKGLEWVAQIKGKSNNYATYYAESVKGRFTISRDDSKNSLYLQMNSLKTEDTAVYYCRYVHYGAYYGVDAWGQGTTVTVSS VL: DIVMTQSPLSLPVTPGEPASISCRSSQSLVHSNRNTYLHWYQQKPGQAPRLLIYKVSNRFSGVPDRFSGSGSGTDFTLKISRVEAEDVGVYYCGQGTQVPYTFGQGTKLEIK", "ratio of amounts bound vs CE115HA000": 0.81},
      {"binder": "CE115HA000 A56G (antibody, name in Kabat numbering, V domains shown) VH: QVQLVESGGGVVQPGRSLRLSCAASGFTFSNAWMHWVRQAPGKGLEWVAQIKAKSNNYGTYYAESVKGRFTISRDDSKNSLYLQMNSLKTEDTAVYYCRYVHYGAYYGVDAWGQGTTVTVSS VL: DIVMTQSPLSLPVTPGEPASISCRSSQSLVHSNRNTYLHWYQQKPGQAPRLLIYKVSNRFSGVPDRFSGSGSGTDFTLKISRVEAEDVGVYYCGQGTQVPYTFGQGTKLEIK", "ratio of amounts bound vs CE115HA000": 0.61},
      {"binder": "CE115HA000 A56K (antibody, name in Kabat numbering, V domains shown) VH: QVQLVESGGGVVQPGRSLRLSCAASGFTFSNAWMHWVRQAPGKGLEWVAQIKAKSNNYKTYYAESVKGRFTISRDDSKNSLYLQMNSLKTEDTAVYYCRYVHYGAYYGVDAWGQGTTVTVSS VL: DIVMTQSPLSLPVTPGEPASISCRSSQSLVHSNRNTYLHWYQQKPGQAPRLLIYKVSNRFSGVPDRFSGSGSGTDFTLKISRVEAEDVGVYYCGQGTQVPYTFGQGTKLEIK", "ratio of amounts bound vs CE115HA000": 1.35},
      {"binder": "CE115HA000 A52aS (antibody, name in Kabat numbering, V domains shown) VH: QVQLVESGGGVVQPGRSLRLSCAASGFTFSNAWMHWVRQAPGKGLEWVAQIKSKSNNYATYYAESVKGRFTISRDDSKNSLYLQMNSLKTEDTAVYYCRYVHYGAYYGVDAWGQGTTVTVSS VL: DIVMTQSPLSLPVTPGEPASISCRSSQSLVHSNRNTYLHWYQQKPGQAPRLLIYKVSNRFSGVPDRFSGSGSGTDFTLKISRVEAEDVGVYYCGQGTQVPYTFGQGTKLEIK", "ratio of amounts bound vs CE115HA000": 1.05},
      {"binder": "CE115HA000 A52aP (antibody, name in Kabat numbering, V domains shown) VH: QVQLVESGGGVVQPGRSLRLSCAASGFTFSNAWMHWVRQAPGKGLEWVAQIKPKSNNYATYYAESVKGRFTISRDDSKNSLYLQMNSLKTEDTAVYYCRYVHYGAYYGVDAWGQGTTVTVSS VL: DIVMTQSPLSLPVTPGEPASISCRSSQSLVHSNRNTYLHWYQQKPGQAPRLLIYKVSNRFSGVPDRFSGSGSGTDFTLKISRVEAEDVGVYYCGQGTQVPYTFGQGTKLEIK", "ratio of amounts bound vs CE115HA000": 0.15},
      {"binder": "CE115HA000 A32Y (antibody, name in Kabat numbering, V domains shown) VH: QVQLVESGGGVVQPGRSLRLSCAASGFTFSNYWMHWVRQAPGKGLEWVAQIKAKSNNYATYYAESVKGRFTISRDDSKNSLYLQMNSLKTEDTAVYYCRYVHYGAYYGVDAWGQGTTVTVSS VL: DIVMTQSPLSLPVTPGEPASISCRSSQSLVHSNRNTYLHWYQQKPGQAPRLLIYKVSNRFSGVPDRFSGSGSGTDFTLKISRVEAEDVGVYYCGQGTQVPYTFGQGTKLEIK", "ratio of amounts bound vs CE115HA000": 0.33},
      {"binder": "CE115HA000 A56D (antibody, name in Kabat numbering, V domains shown) VH: QVQLVESGGGVVQPGRSLRLSCAASGFTFSNAWMHWVRQAPGKGLEWVAQIKAKSNNYDTYYAESVKGRFTISRDDSKNSLYLQMNSLKTEDTAVYYCRYVHYGAYYGVDAWGQGTTVTVSS VL: DIVMTQSPLSLPVTPGEPASISCRSSQSLVHSNRNTYLHWYQQKPGQAPRLLIYKVSNRFSGVPDRFSGSGSGTDFTLKISRVEAEDVGVYYCGQGTQVPYTFGQGTKLEIK", "ratio of amounts bound vs CE115HA000": 0.51},
      {"binder": "CE115HA000 A52aE (antibody, name in Kabat numbering, V domains shown) VH: QVQLVESGGGVVQPGRSLRLSCAASGFTFSNAWMHWVRQAPGKGLEWVAQIKEKSNNYATYYAESVKGRFTISRDDSKNSLYLQMNSLKTEDTAVYYCRYVHYGAYYGVDAWGQGTTVTVSS VL: DIVMTQSPLSLPVTPGEPASISCRSSQSLVHSNRNTYLHWYQQKPGQAPRLLIYKVSNRFSGVPDRFSGSGSGTDFTLKISRVEAEDVGVYYCGQGTQVPYTFGQGTKLEIK", "ratio of amounts bound vs CE115HA000": 0.57},
      {"binder": "CE115HA000 A56L (antibody, name in Kabat numbering, V domains shown) VH: QVQLVESGGGVVQPGRSLRLSCAASGFTFSNAWMHWVRQAPGKGLEWVAQIKAKSNNYLTYYAESVKGRFTISRDDSKNSLYLQMNSLKTEDTAVYYCRYVHYGAYYGVDAWGQGTTVTVSS VL: DIVMTQSPLSLPVTPGEPASISCRSSQSLVHSNRNTYLHWYQQKPGQAPRLLIYKVSNRFSGVPDRFSGSGSGTDFTLKISRVEAEDVGVYYCGQGTQVPYTFGQGTKLEIK", "ratio of amounts bound vs CE115HA000": 0.8}
    ]}
  ]
}
